Results: patent US6949357

Biological target: rabbit polyclonal antiserum against the BL172 synthetic peptide of SEQ ID NO: 20
Experiment: competition Western blot; antiserum pre-incubated overnight at 4 C with varying concentrations of peptide immunogen

## TQTCGNCTFRVCFEQCCPWTFMVKLINQNCD [BL172 synthetic peptide of SEQ ID NO: 20]
  concentration of peptide at which antibody binding to the band was inhibited: 2.9 µM
